The supplement of paper PMC11865577

System: G-clamp-N3 (biotin conjugate)
Assay: pull-down binding Z-score (relative to library population); higher = stronger binding
Settings: RNA library: Library-1 (pre-miRNA loops + repeats)
In short: (§1)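 Binding is given as a Z-score against the library mean and standard deviation, calculated after removing the beads-only signal and averaging barcoded replicate probes without their highest and lowest values. Cy5- or Cy3-end-labelled RNA library (1 μg) was heat-folded in phosphate/NaCl/KCl buffer and incubated 60 min at 25 °C with streptavidin beads bearing 100 pmol of biotin-conjugated small molecule. After three washes, RNA eluted in hot SDS was hybridised to a DNA barcode microarray for 20 h at 55.5 °C.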

Sequence | pull-down binding Z-score
AAAUAAAAGAUGGAGUCGUUUGACGUCUUUUAACACCCUUU [hsa-mir-8055] | -0.175
AAAUAAGAGGCUAGGAUUGCCUCUUAUUU [hsa-mir-3201] | 0.838
AAAUAAGCUCCAUAUCAAUGAGAAUUUCAAUGGGAUUAUGUG [hsa-mir-4791] | -1.06
AAAUAGUUUCUAUCAAAAUAGUUU [hsa-mir-3668] | -1.13
AAAUCCCGUUAAUAAGUAAGAGGAUUU [hsa-mir-2113] | 0.525
AAAUCCGUGUUUGGACGCUUCUGGUA [hsa-mir-3936] | -0.453
AAAUGAGAGUUAGCCAGGAGCUUUGCAUACUCA [hsa-mir-6801] | -1.22
AAAUUGCAGACACUAGGACCAUGUCUUGGUUUUUGCAAUAAUG [hsa-mir-1248] | 0.0385
AACAACAGCAUCAGAAGCAACAUCAGCUUUAGUU [hsa-mir-569] | -1.03
AACACCCAUCCCAGGAUUGCUGAUGGGUGUU [hsa-mir-5705] | -0.7
AACAGCAGGAUUGGCUGUAGCUGUU [hsa-mir-2117] | 0.593
AACAGCUUUGCGAAGUGUUGUU [hsa-mir-4425] | -0.651
AACAGGACCUGUGCUCACUGGGGCCUGCA [hsa-mir-6797] | -0.344
AACAUACAUUUGUCUUGGUGUGUU [hsa-mir-4684] | 3.35
AACGUUAUGUGUGGUCUUUAACCUGUU [hsa-mir-6755] | -1.32
AACUCCUGCGAGUCCCUGGAGUU [hsa-mir-1258] | 0.214
AACUCUGUUGAAUAUAAAUUGGAAUU [hsa-mir-367] | -0.214
AACUGUGCGGCCGGCCACACCGUCACACCGGGU [hsa-mir-8083] | -0.324
AAGACACUAUCUGACAACAACAGGGCUCUU [hsa-mir-550b-2] | 0.0423
AAGACACUAUCUUACAACAACAGGGCUCUU [hsa-mir-550b-1] | 0.13
AAGAGGAGGUGGUUGUUUUCCUCCUCUU [hsa-mir-627] | -0.0833
AAGAGGUAAGAAGAAGUGAAGCCCUCUU [hsa-mir-4778] | -0.836
AAGCAGGGUCGGGCCUGGUU [hsa-mir-7641-2] | 0.553
AAGCAGGGUUGGGCCUGGUU [hsa-mir-7641-1] | -1.23
AAGCCCUACGAGAAACUGGGGUUUCUGGA [hsa-mir-765] | -1.01

Sequence | pull-down binding Z-score
AAGCUCUUGCAGUAGGUUU [hsa-mir-1206] | 0.242
AAGCUGACAGACAGCUG [hsa-mir-5691] | 1.16
AAGCUGUGUGUGUCCAGC [hsa-mir-4732] | -0.258
AAGGCCAGGACCCGCUGACCCAU [hsa-mir-6872] | -1.17
AAGGCCCUUGGGCACCCCAGGCCUU [hsa-mir-5700] | -1.26
AAGGCGGGUGGUGCUCAGAUCGCCU [hsa-mir-326] | 0.799
AAGGGUGUAUGAGAGAUCAACCCUU [hsa-mir-5697] | 2.33
AAGGUGGAGUUCUGGGUGCUGUUUUCCCACUCU [hsa-mir-378i] | -0.335
AAGUAAUUGUUUCUAAUGUACU [hsa-mir-412] | 0.96
AAGUAGUUGGCGUCUUCAGAGACACUU [hsa-mir-643] | -0.0629
AAGUCCGGCUCCAGAACCUGGACACCGCUCAG [hsa-mir-4638] | -1.24
AAGUCGAUUUCCAAAAGUGACUU [hsa-mir-3124] | -0.161
AAGUGCCGUCCUCAUGAGCCCCU [hsa-mir-6769b] | -0.873
AAGUGGAGCAGGAAUGCGCUUUUCUCCACUG [hsa-mir-5187] | 1.93
AAGUUCCCUCUGGCUGGAAC [hsa-mir-1249] | -0.433
AAUAAAGUAUGUCCACAGCUGAAAGGACAUACUUUAUU [hsa-mir-4464] | -0.77
AAUCCCAGCACUUUGGGAG [hsa-mir-3929] | 0.566
AAUCCCUCUCUUUCUAGUUCUUCCUAGAGUGAGGAAAA [hsa-mir-320b-1] | -1.69
AAUGACUCAUAGUCAA [hsa-mir-4475] | -0.88
AAUGCAGUCUGCACCCUGCUGCAUU [hsa-mir-6504] | -0.398
AAUGCAUAGAAAGCAUU [hsa-mir-4272] | 1.58
AAUGCUGUGUUUCUGUAUGGUAUU [hsa-mir-92a-1] | -0.453
AAUGUCAGGGCCACCCCUGACCUU [hsa-mir-6837] | 0.482
AAUUGGCUUUUACAAAAGACCAACU [hsa-mir-4798] | 0.914
AAUUUUCUCUUGUCUAAAAGAAAAGAACG [hsa-mir-521-2] | -0.762

Sequence | pull-down binding Z-score
AAUUUUGAUGAGUAUCAUAGGAGAAAAAUU [hsa-mir-363] | 1.49
AAUUUUUUUUUAAUUUAAAAAAUU [hsa-mir-3938] | 0.843
ACAAUAUGCUAUUAUAAUCGUAUGGCAUUGU [hsa-mir-2355] | 0.228
ACAAUUAUGAAAGAAAAGAAAUUGU [hsa-mir-3611] | 0.163
ACACACACCAGACUAUGGAAGCCAGUGU [hsa-mir-147a] | -0.656
ACACCUGUAAAGAAUUGGUCAGCCUGGGGACUGGUGAUCUCUGCAGCUGU [hsa-mir-4265] | -0.15
ACACUGCGCUGCCCCAGACCCACUGU [hsa-mir-210] | -1.18
ACACUGGGCUGCCCCCACUGCCCAGUGC [hsa-mir-4277] | -0.963
ACACUUCCUAUAUGUAUCCACAUAUAUAUAGU [hsa-mir-568] | 0.00925
ACAGAGUGAGAUGGUCUUGUUUUGU [hsa-mir-5684] | 0.00683
ACAGCAGUCUUACUGAAGGUUUCCUGGAAACCACGCACAUGCUGU [hsa-mir-744] | -0.613
ACAGCCAGUGCUCUCGUCUCCCCUCUGGCUGC [hsa-mir-192] | 0.589
ACAGCGCCACGGAAGAGGACGCA [hsa-mir-941-4_941-5_941-2_941-3_941-1] | -0.758
ACAGGUAGUGGCCACAGUGAGAAAGCUGGCCUGUCCUUCUGC [hsa-mir-4314] | -0.00957
ACAGUGGACUUGGUGACGCUGU [hsa-mir-675] | 1.67
ACAGUGGCCACAUCUCCAC [hsa-mir-1184-3_1184-2_1184-1] | -1.28
ACAGUUUGAGGGUCUAUGAUACCACCCGGUACAGGAGAUAACUGU [hsa-let-7g] | 0.817
ACAUGAAAAUAAAAUGUAAAUUAUUUUAUUUCUAUCA [hsa-mir-3671] | -0.346
ACAUGCAGUAUUUGG [hsa-mir-1302-8] | 0.976
ACAUUUGCAACCUGUGAAGAUGCAAAACUUUAAGUGU [hsa-mir-2053] | -0.673
ACCAAAAAUGAUAUGGGU [hsa-mir-7977] | 1.5
ACCAAAACACUCAUCGCGG [hsa-mir-1260a] | -0.734
ACCACCCAGGCCUUAUGGCUUCAUA [hsa-mir-7974] | -1.68

System: TO-3-N3 (biotin conjugate)
Assay: as above
Settings: RNA library: Library-2
In short: as §1

Sequence | pull-down binding Z-score
AAAUAAAAGAUGGAGUCGUUUGACGUCUUUUAACACCCUUU [hsa-mir-8055] | -0.623
AAAUAAGAGGCUAGGAUUGCCUCUUAUUU [hsa-mir-3201] | -0.688
AAAUAAGCUCCAUAUCAAUGAGAAUUUCAAUGGGAUUAUGUG [hsa-mir-4791] | -0.569
AAAUAGUUUCUAUCAAAAUAGUUU [hsa-mir-3668] | -0.791
AAAUCCCGUUAAUAAGUAAGAGGAUUU [hsa-mir-2113] | 0.503
AAAUCCGUGUUUGGACGCUUCUGGUA [hsa-mir-3936] | 0.678
AAAUGAGAGUUAGCCAGGAGCUUUGCAUACUCA [hsa-mir-6801] | -0.384
AAAUUGCAGACACUAGGACCAUGUCUUGGUUUUUGCAAUAAUG [hsa-mir-1248] | -0.228
AACAACAGCAUCAGAAGCAACAUCAGCUUUAGUU [hsa-mir-569] | 0.728
AACACCCAUCCCAGGAUUGCUGAUGGGUGUU [hsa-mir-5705] | -0.618
AACAGCAGGAUUGGCUGUAGCUGUU [hsa-mir-2117] | 0.357
AACAGCUUUGCGAAGUGUUGUU [hsa-mir-4425] | 0.104
AACAGGACCUGUGCUCACUGGGGCCUGCA [hsa-mir-6797] | 0.406
AACAUACAUUUGUCUUGGUGUGUU [hsa-mir-4684] | -1.01
AACGUUAUGUGUGGUCUUUAACCUGUU [hsa-mir-6755] | -0.152
AACUCCUGCGAGUCCCUGGAGUU [hsa-mir-1258] | 0.16
AACUCUGUUGAAUAUAAAUUGGAAUU [hsa-mir-367] | -0.404
AACUGUGCGGCCGGCCACACCGUCACACCGGGU [hsa-mir-8083] | 1.14
